63 sequences from the supplement of paper PMC9112550, “Optimization of the antimicrobial peptide Bac7 by deep mutational scanning” (BMC Biology, 2022) can be followed below.
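Also: peptides expressed intracellularly from a pBAD plasmid library in pooled LB shake-flask culture, induced with 0.3% L-arabinose, DNA abundance read by NGS, three biological replicates, DESeq2 with apeglm shrinkage.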

For this data set, the system named is Escherichia coli TOP10. Briefly: shrunken log2 fold change of peptide-encoding DNA abundance (4.5 h post-induction vs induction); higher = less antimicrobial activity (less host growth inhibition). The note with it: time post-induction: 4.5 h; library: site-saturation at positions 5, 18, 19, 20.
Turning to RRIRVRPPRLPRPRPRPFSCPRP, the “shrunken log2 fold change” value was -0.323.
With RRIRLRPPRLPRPRPRPRICPRP, the “shrunken log2 fold change” value is -0.237.
With RRIRFRPPRLPRPRPRPMHWPRP, the “shrunken log2 fold change” value was determined as 0.325.
Regarding RRIRERPPRLPRPRPRPGVTPRP, the “shrunken log2 fold change” value was 0.00546.
On to RRIRKRPPRLPRPRPRPEGCPRP, for which the “shrunken log2 fold change” value was determined as 0.959.
For RRIRQRPPRLPRPRPRPRSTPRP the value was 0.203; for RRIRLRPPRLPRPRPRPPHAPRP, 1.2; for RRIRGRPPRLPRPRPRPVYSPRP, -0.36.
RRIRLRPPRLPRPRPRPAKKPRP: the “shrunken log2 fold change” value was found to be 0.0858.
Consider RRIRPRPPRLPRPRPRPCCHPRP, for which the “shrunken log2 fold change” value came to 0.0505.
Consider RRIRERPPRLPRPRPRPTNSPRP, for which the “shrunken log2 fold change” value was -0.782.
Take RRIRHRPPRLPRPRPRPIYGPRP: the “shrunken log2 fold change” value is -0.0133.
With RRIRNRPPRLPRPRPRPRVPPRP, the “shrunken log2 fold change” value was -0.134.
For RRIRDRPPRLPRPRPRPCEAPRP the value was -0.0794.
The value for RRIRHRPPRLPRPRPRPQNTPRP was -0.871.
With RRIRHRPPRLPRPRPRPVWGPRP, the “shrunken log2 fold change” value came out at 0.479.
For RRIRVRPPRLPRPRPRPMRDPRP, the “shrunken log2 fold change” value worked out at 0.0208.
For RRIRERPPRLPRPRPRPQIKPRP the value was -0.723.
As for RRIRARPPRLPRPRPRPQVWPRP, the “shrunken log2 fold change” value is 0.275.
Consider RRIRERPPRLPRPRPRPQAGPRP, for which the “shrunken log2 fold change” value was 0.275.
As for RRIRYRPPRLPRPRPRPTCDPRP, the “shrunken log2 fold change” value is -0.424.
Take RRIRSRPPRLPRPRPRPFVSPRP: the “shrunken log2 fold change” value was -0.481.
As to RRIRCRPPRLPRPRPRPHVAPRP, the “shrunken log2 fold change” value is -0.0172.
As for RRIRVRPPRLPRPRPRPVRMPRP, the “shrunken log2 fold change” value was -0.0731.
Turning to RRIRHRPPRLPRPRPRPWFSPRP, the “shrunken log2 fold change” value was -0.294.
The value for RRIRQRPPRLPRPRPRPSDYPRP was -0.0346.
For RRIRFRPPRLPRPRPRPCMTPRP the value was 0.162.
For RRIRIRPPRLPRPRPRPSGDPRP the value was -0.742.
RRIRKRPPRLPRPRPRPEHGPRP: the “shrunken log2 fold change” value is 0.0647.
RRIRFRPPRLPRPRPRPAKMPRP: the “shrunken log2 fold change” value was found to be 0.207.
On to RRIRFRPPRLPRPRPRPLDTPRP, for which the “shrunken log2 fold change” value was determined as 0.0445.
Regarding RRIRIRPPRLPRPRPRPDKQPRP, the “shrunken log2 fold change” value was 0.0185.
For RRIRRRPPRLPRPRPRPDVQPRP, the “shrunken log2 fold change” value was -0.0867.
As to RRIRRRPPRLPRPRPRPYGEPRP, the “shrunken log2 fold change” value was -0.0212.
For RRIRERPPRLPRPRPRPNQAPRP, the “shrunken log2 fold change” value was -0.0316.
For the sequence RRIRERPPRLPRPRPRPKNEPRP, the “shrunken log2 fold change” value is -0.315.
The value for RRIRNRPPRLPRPRPRPVMRPRP was 0.526.
RRIRGRPPRLPRPRPRPTYQPRP: the “shrunken log2 fold change” value turned out to be 0.169.
Take RRIRCRPPRLPRPRPRPCLWPRP: the “shrunken log2 fold change” value came to 0.238.
On to RRIRPRPPRLPRPRPRPGLVPRP, for which the “shrunken log2 fold change” value was 0.287.
For RRIRTRPPRLPRPRPRPTNCPRP the value was 0.216.
As for RRIRIRPPRLPRPRPRPRPKPRP, the “shrunken log2 fold change” value was 0.567.
With RRIRFRPPRLPRPRPRPKELPRP, the “shrunken log2 fold change” value is -0.127.
RRIRFRPPRLPRPRPRPDPAPRP: the “shrunken log2 fold change” value is 0.266.
For the sequence RRIRSRPPRLPRPRPRPACVPRP, the “shrunken log2 fold change” value came to 0.224.
For RRIRERPPRLPRPRPRPHLFPRP, the “shrunken log2 fold change” value was -0.178.
With RRIRTRPPRLPRPRPRPMFYPRP, the “shrunken log2 fold change” value was -0.359.
For RRIRNRPPRLPRPRPRPMPQPRP, the “shrunken log2 fold change” value is -0.0321.
For the sequence RRIRLRPPRLPRPRPRPNGMPRP, the “shrunken log2 fold change” value was -0.0765.
Take RRIRIRPPRLPRPRPRPWCPPRP: the “shrunken log2 fold change” value is 0.0944.
The value for RRIRIRPPRLPRPRPRPDFVPRP was -0.0852.
In the case of RRIRQRPPRLPRPRPRPNTQPRP, the “shrunken log2 fold change” value is -0.621.
For RRIRMRPPRLPRPRPRPHHCPRP, the “shrunken log2 fold change” value was -0.27.
For the sequence RRIRVRPPRLPRPRPRPWPWPRP, the “shrunken log2 fold change” value was found to be 0.197.
For RRIRDRPPRLPRPRPRPPVDPRP the value was 0.361; for RRIRLRPPRLPRPRPRPCTPPRP, -0.172; for RRIRPRPPRLPRPRPRPWFAPRP, -0.116.
For the sequence RRIRHRPPRLPRPRPRPSDDPRP, the “shrunken log2 fold change” value was -0.0349.
As to RRIRVRPPRLPRPRPRPGACPRP, the “shrunken log2 fold change” value is 0.0218.
On to RRIRQRPPRLPRPRPRPGELPRP, for which the “shrunken log2 fold change” value was -0.091.
The value for RRIRSRPPRLPRPRPRPACLPRP was 0.0251.
On to RRIRMRPPRLPRPRPRPAADPRP, for which the “shrunken log2 fold change” value is 2.81.
For RRIRGRPPRLPRPRPRPDWHPRP, the “shrunken log2 fold change” value was 0.238.
